# Residues, ends and D or L forms follow the SMILES beside them. *: point of attachment. Cbz = O=C(OCc1ccccc1)*; CH2F = FC*
# How the values were obtained:
# [1] = system: QYC cells; experiment: Inhibition of huSM5-1 induced apoptosis by caspase inhibitors; type: cell-based, human; details: QYC cells incubated with caspase inhibitor at 50 mol/l for 2 h, then 50 ng/ml huSM5-1 antibody
# Description: To determine whether caspase is involved in huSM5-1 antibody induced apoptosis, a variety of caspase inhibitors were tested to observe the inhibitory rate of apoptosis. The caspase inhibitors tested included common caspase inhibitor (Z-VAD-FMK), caspase-1 inhibitor (Z-WEHD-FMK), caspase-2 inhibitor (Z-VDVAD-FMK), caspase-3 inhibitor (Z-DEVD-FMK), caspase-4 inhibitor (Z-YVAD-FMK), caspase-6 inhibitor (Z-VEID-FMK), caspase-8 inhibitor (Z-IETD-FMK), caspase-9 inhibitor (Z-LEHD-FMK), caspase-10 inhibitor (Z-AVED-FMK), caspase-13 inhibitor (Z-LEED-FMK). QYC cells were incubated with caspase inhibitor at 50 mol/l for 2 h. QYC cells were then treated with 50 ng/ml huSM5-1 antibody. The inhibitory rates of these inhibitors were: 72% for pan-caspase inhibitor, 52% for caspase-10 inhibitor, 28% for caspase-6 inhibitor, 27% for caspase-1 inhibitor, 17% for caspase-8 inhibitor, 15% for caspase-13 inhibitor, 14% for caspase-4 inhibitor, 5% for caspase-9 inhibitor, 1% for caspase-2 inhibitor, 1% for caspase-3 inhibitor.
# [2] = system: hepatocellular carcinoma cell line QYC; experiment: Cell growth inhibition by huSM5-1, MTT assay; type: cell-based, human
# Description: Cell growth inhibition by huSM5-1 antibody was tested using MTT assay. MTT assay is based on the principle that viable cells can reduce yellow MTT into blue purple crystals. Cells of interest (1×10^3) were incubated with various concentrations of antibodies. After a period of time, 20 μl MTT (0.5 mg/ml) was added into the cell culture medium and was incubated for 2 h. After the incubation, culture medium was removed and 150 μl DMSO was added to solubilize the MTT precipitate. The reduced MTT was examined by measuring absorbance at 490 nm using Benchmark optical absorption reading machine (Bio-Rad Laboratories). The cell growth inhibition was calculated according to the following equation: Inhibition (%)=(B−C)/(A−C)×100
# “A” represents the OD value of cells without huSM5-1 treatment; “B” represents the OD value of huSM5-1 treated cells; and “C” represents the OD value of negative control. Each condition was performed in triplicate.
# Growth inhibition by huSM5-1 were tested in four tumor cell lines (hepatocellular carcinoma cell QYC and XJC, breast cancer cell line MDA-MB-231, and melanoma cell line CRL-1872) using MTT assay. Cells were treated with different amount of huSM5-1 (50 ng/ml, 10 ng/ml, 1 ng/ml) for 24 h, 48 h, 72 h, and 96 h. The most inhibition occurred when the concentration of the antibody was at 50 ng/ml and after 72 h treatment.
# [3] = system: caspase-10; experiment: Caspase-10 colorimetric activity assay in huSM5-1 treated XJC cells; type: cell-based
# Description: (§1) To further confirm that huSM5-1 induced apoptosis is caspase-10 related, caspase-10 color comparing analysis kit was used to examine the increase of caspase-10 bioactivity in QYC and XJC cells. Caspase-10 activity was examined with caspase-10 analysis kit (R&D, USA) according to manufacture's instruction. Cells were incubated with 50 ng/ml huSM5-1 antibody for a certain period of time. Cells were then centrifuged and lysed in a lysis buffer (25 ul/10^6 cells) on ice for 10 min. The lysates were centrifuged, and the supernatant was transferred into new tubes and kept on ice. The enzyme activity of caspase was examined on 96-well micro-titer plate. Each reaction included 50 μl supernatant from cell lysate, 50 μl 2× reaction buffer, 10 μl fresh DTT storage solution. In addition, 5 ul caspase-10 color-comparing substrate (AEVD-pNA) was added into the reaction. The plate was incubated at 37° C. for 1-2 h and absorbance at 405 nm was then measured. The increase of caspase-10 related activity was calculated according to the following equation: Caspase-10 activity (%)=(B−C)/(A−C)×100%
# (§2) “A” represents OD value of supernatant from cell lysates without huSM5-1 antibody treatment; “B” represents OD value of supernatant from cell lysate treated with huSM5-1; “C” represents OD value of negative control. Each test was done in triplicate.
# [4] = system: melanoma cell line A2058; experiment: Viable cell count after huSM5-1 treatment; type: cell-based, human; details: final volume 500 μl, 24 h, relative to wells without huSM5-1
# Description: (§3) The melanoma cell line A2058 was expanded to 10^6/ml in RPMI-1640 culture medium. The cell suspension (20 μl) and different amount of huSM5-1 (0, 1, 5, 10, 20, 50, 100 μl) were added into each well of the 96 well plate. The antibody huSM5-1 was diluted in RPMI-1640 medium containning 10% FCS to reach a final concentration of 1 μg/μl before it was added into the well. RPMI-1640 medium containing 10% FCS was added to each well to make a final volume of 500 μl in each well. Each condition was performed in triplicate. Cells were incubated at 37° C. in a humidified incubator at 5% CO2 for 24 h. At the end of the incubation, cells were suspended and viable cells were examined under microscope or assessed using MTT.
# Viable cells in 0.2 ml cell suspension from each well were counted. Viable cells are expressed as percentage of viable cells compared to the wells without addition of huSM5-1.
# [5] = system: melanoma cell line A2058; experiment: MTT assay of viable cells after huSM5-1 treatment; type: cell-based, human; details: 570 nm, final volume 500 μl, 24 h
# Description: as §3
# MTT solution (5 mg/ml) was added into 0.2 ml cell suspension describe above at 1:10 dilution. The cells were then incubated at 37° C. for 30 min and optical adsorption at 570 nm for each sample was read.
# [6] = system: caspase-10; experiment: Caspase-10 colorimetric activity assay in huSM5-1 treated QYC cells; type: cell-based, human
# Description: as §1, §2
molecule,measurement,setting,value
"COC(=O)CC[C@H](NC(=O)[C@H](CCC(=O)OC)NC(=O)[C@H](CC(C)C)NC(=O)OCc1ccccc1)C(=O)N[C@@H](CC(=O)OC)C(=O)CF [caspase-13 inhibitor, Z-LEED-FMK] (Cbz-LE(OMe)E(OMe)D(OMe)-CH2F)",inhibitory rate of huSM5-1 induced apoptosis,[1],15%
"COC(=O)CCC(NC(=O)C(NC(=O)C(C)NC(=O)OCc1ccccc1)C(C)C)C(=O)NC(CC(=O)OC)C(=O)CF (stereo not drawn) [caspase-10 inhibitor, Z-AVED-FMK] (Cbz-AVE(OMe)D(OMe)-CH2F; configuration not given here)",inhibitory rate of huSM5-1 induced apoptosis,[1],52%
"CC[C@H](C)[C@H](NC(=O)[C@H](CCC(=O)OC)NC(=O)[C@@H](NC(=O)OCc1ccccc1)C(C)C)C(=O)N[C@@H](CC(=O)OC)C(=O)CF [caspase-6 inhibitor, Z-VEID-FMK] (Cbz-VE(OMe)ID(OMe)-CH2F)",inhibitory rate of huSM5-1 induced apoptosis,[1],28%
"COC(=O)CC[C@H](NC(=O)[C@H](CC(C)C)NC(=O)OCc1ccccc1)C(=O)N[C@@H](Cc1cnc[nH]1)C(=O)N[C@@H](CC(=O)OC)C(=O)CF [caspase-9 inhibitor, Z-LEHD-FMK] (Cbz-LE(OMe)HD(OMe)-CH2F)",inhibitory rate of huSM5-1 induced apoptosis,[1],5%
"COC(=O)C[C@H](NC(=O)[C@H](C)NC(=O)[C@@H](NC(=O)[C@H](CC(=O)OC)NC(=O)[C@@H](NC(=O)OCc1ccccc1)C(C)C)C(C)C)C(=O)CF [caspase-2 inhibitor, Z-VDVAD-FMK] (Cbz-VD(OMe)VAD(OMe)-CH2F)",inhibitory rate of huSM5-1 induced apoptosis,[1],1%
"COC(=O)CC[C@H](NC(=O)[C@H](Cc1c[nH]c2ccccc12)NC(=O)OCc1ccccc1)C(=O)N[C@@H](Cc1cnc[nH]1)C(=O)N[C@@H](CC(=O)OC)C(=O)CF [caspase-1 inhibitor, Z-WEHD-FMK] (Cbz-WE(OMe)HD(OMe)-CH2F)",inhibitory rate of huSM5-1 induced apoptosis,[1],27%
"COC(=O)C[C@H](NC(=O)[C@H](C)NC(=O)[C@@H](NC(=O)OCc1ccccc1)C(C)C)C(=O)CF [pan-caspase inhibitor, Z-VAD-FMK] (Cbz-Val-Ala-Asp(OMe)-CH2F)",inhibitory rate of huSM5-1 induced apoptosis,[1],72%
"COC(=O)C[C@H](NC(=O)[C@H](C)NC(=O)[C@@H](NC(=O)[C@H](Cc1ccc(O)cc1)NC(=O)OCc1ccccc1)C(C)C)C(=O)CF [caspase-4 inhibitor, Z-YVAD-FMK]",inhibitory rate of huSM5-1 induced apoptosis,[1],14%
"CC[C@H](C)[C@H](NC(=O)OCc1ccccc1)C(=O)N[C@@H](CCC(=O)OC)C(=O)N[C@H](C(=O)N[C@@H](CC(=O)OC)C(=O)CF)[C@@H](C)O [caspase-8 inhibitor, Z-IETD-FMK] (Cbz-IE(OMe)TD(OMe)-CH2F)",inhibitory rate of huSM5-1 induced apoptosis,[1],17%
"COC(=O)CC[C@H](NC(=O)[C@H](CC(=O)OC)NC(=O)OCc1ccccc1)C(=O)N[C@H](C(=O)N[C@@H](CC(=O)OC)C(=O)CF)C(C)C [caspase-3 inhibitor, Z-DEVD-FMK]",inhibitory rate of huSM5-1 induced apoptosis,[1],1%
"huSM5-1: human SM5-1 specific monoclonal antibody from phage library; VH SEQ ID NO:9, VL SEQ ID NO:10 (antibody, listed as Homo Sapiens, V domains shown) VH: QVQLVESGGGVVQPGCSLRLSCSSSGYTFTSYTMHWVRQAPGKGLEWIGYINPYNDGGKYNEKFKWRFSISSDKSKNTLFLQSDSLTPEDTGVYYCARGSRYDWYGDYWGQGTPVTVSS VL: DIQMTQSPSSLSGSVGDRVTITCDSSQSVLYSSKDDNYLAWYQQGPGKAPSLLIYYASDRESDVPSRFSGSGSGDDYTLTISSLQPEDAATYYCHQWFSSYTFDQGTKLNITR",growth inhibition,"[2]; 1 ng/ml, 24 h",7%
same,growth inhibition,"[2]; 1 ng/ml, 48 h",~5%
same,growth inhibition,"[2]; 1 ng/ml, 72 h",10%
same,growth inhibition,"[2]; 1 ng/ml, 96 h",2.5%
same,growth inhibition,"[2]; 10 ng/ml, 24 h",11%
same,growth inhibition,"[2]; 10 ng/ml, 48 h",~17%
same,growth inhibition,"[2]; 10 ng/ml, 72 h",19%
same,growth inhibition,"[2]; 10 ng/ml, 96 h",11%
same,growth inhibition,"[2]; 50 ng/ml, 24 h",29%
same,growth inhibition,"[2]; 50 ng/ml, 48 h",about 28%
same,growth inhibition,"[2]; 50 ng/ml, 72 h",43%
same,growth inhibition,"[2]; 50 ng/ml, 96 h",36%
same,Caspase-10 activity (%),"[3]; 50 ng/ml huSM5-1, 48 h",17%
same,Caspase-10 activity (%),"[3]; 50 ng/ml huSM5-1, 72 h",38%
same,Caspase-10 activity (%),"[3]; 50 ng/ml huSM5-1, 96 h",28%
same,Cell survival (%),[4]; huSM5-1 addition 1 μl (1 μg/μl),87.8%
same,Cell survival (%),[4]; huSM5-1 addition 5 μl (1 μg/μl),68.8%
same,Cell survival (%),[4]; huSM5-1 addition 10 μl (1 μg/μl),53.2%
same,Cell survival (%),[4]; huSM5-1 addition 20 μl (1 μg/μl),42.6%
same,Cell survival (%),[4]; huSM5-1 addition 50 μl (1 μg/μl),32.6%
same,Cell survival (%),[4]; huSM5-1 addition 100 μl (1 μg/μl),22.6%
same,Optical adsorption (%),[5]; huSM5-1 addition 1 ul (1 μg/μl),96.3%
same,Optical adsorption (%),[5]; huSM5-1 addition 5 ul (1 μg/μl),84.9%
same,Optical adsorption (%),[5]; huSM5-1 addition 10 ul (1 μg/μl),66.2%
same,Optical adsorption (%),[5]; huSM5-1 addition 20 ul (1 μg/μl),47.7%
same,Optical adsorption (%),[5]; huSM5-1 addition 50 ul (1 μg/μl),33.6%
same,Optical adsorption (%),[5]; huSM5-1 addition 100 ul (1 μg/μl),20.1%
same,Caspase-10 activity (%),"[6]; 50 ng/ml huSM5-1, 48 h",13%
same,Caspase-10 activity (%),"[6]; 50 ng/ml huSM5-1, 96 h",51%

# — patent publication US20050232926A1, “Antibodies specific for cancer associated antigen SM5-1 and uses thereof” (Oncomax Acquisition Corp., priority 2003, published 2005)
